Broadly, the EC50 is the concentration giving half of the maximal effect.

Data on 1 substance can be found in PMC4412080.

The target in the assay is mouse anti-human CD4 IgG (BD Biosciences) (mouse). The assay can be described thus: ELISA; wells coated overnight at 4°C in PBS with mouse anti-human CD4 IgG (4 μg/mL) or with BSA; blocked with 3% BSA; phage (ID1-mZ 3 × 10^8 to 1 × 10^10 PFU/mL) in 0.1% Tween, 0.1% BSA in PBS for 1 h at r.t.; detected with HRP-conjugated anti-M13 antibody and TMB; mid-point of binding estimated; multivalent display; how the phage was prepared is not told.

“ID1-mZ phage (M13KE-derived phage that displays the minimized Z-domain of protein A and a TEV recognition sequence inside pIII, in linker L1)”: the 50% effective concentration (EC50) was 0.6 pM.
